Experiments:
Conditions in all cases: reference: unphosphorylated peptide; sites S732
PDZD7 PDZ domain 3 = PDZD7 PDZ domain 3 (UniProt Q9H5P4); test: SPR, biotin-peptide on streptavidin chip
ARHGEF12 PDZ domain = ARHGEF12 PDZ domain (UniProt Q9NZN5); test: SPR, biotin-peptide on streptavidin chip
GOPC PDZ domain = GOPC PDZ domain (UniProt Q9HD26); test: SPR, biotin-peptide on streptavidin chip
MAST2 PDZ domain = MAST2 PDZ domain (UniProt Q6P0Q8); test: SPR, biotin-peptide on streptavidin chip
MAST1 PDZ domain = MAST1 PDZ domain (UniProt Q9Y2H9); test: SPR, biotin-peptide on streptavidin chip
NHERF3 PDZ domain 1 = NHERF3 PDZ domain 1 (UniProt Q5T2W1); test: automated holdup, biotin-peptide resin
NHERF2 PDZ domain 2 = NHERF2 PDZ domain 2 (UniProt Q15599); test: automated holdup, biotin-peptide resin
PDZRN3 PDZ domain 1 = PDZRN3 PDZ domain 1 (UniProt Q9UPQ7); test: automated holdup, biotin-peptide resin
GRID2IP PDZ domain 1 = GRID2IP PDZ domain 1 (UniProt A4D2P6); test: automated holdup, biotin-peptide resin
MAGI3 PDZ domain 2 = MAGI3 PDZ domain 2 (UniProt Q5TCQ9); test: automated holdup, biotin-peptide resin
MAGI2 PDZ domain 2 = MAGI2 PDZ domain 2 (UniProt Q86UL8); test: automated holdup, biotin-peptide resin
LIMK2 PDZ domain = LIMK2 PDZ domain (UniProt P53671); test: automated holdup, biotin-peptide resin
DFNB31 PDZ domain 3 = DFNB31 PDZ domain 3 (UniProt Q9P202); test: automated holdup, biotin-peptide resin
DLG4 PDZ domain 2 = DLG4 PDZ domain 2 (UniProt P78352); test: automated holdup, biotin-peptide resin
PPP1R9A PDZ domain = PPP1R9A PDZ domain (UniProt Q9ULJ8); test: automated holdup, biotin-peptide resin
GORASP1 PDZ domain = GORASP1 PDZ domain (UniProt Q9BQQ3); test: automated holdup, biotin-peptide resin
GRASP PDZ domain = GRASP PDZ domain (UniProt Q7Z6J2); test: automated holdup, biotin-peptide resin
PTPN3 PDZ domain = PTPN3 PDZ domain (UniProt P26045); test: automated holdup, biotin-peptide resin
ARHGEF11 PDZ domain = ARHGEF11 PDZ domain (UniProt O15085); test: automated holdup, biotin-peptide resin
MAGI1 PDZ domain 2 = MAGI1 PDZ domain 2 (UniProt Q96QZ7); test: automated holdup, biotin-peptide resin
GORASP2 PDZ domain = GORASP2 PDZ domain (UniProt Q9H8Y8); test: automated holdup, biotin-peptide resin
LAP2 PDZ domain = LAP2 PDZ domain (UniProt Q96RT1); test: automated holdup, biotin-peptide resin
SHANK3 PDZ domain = SHANK3 PDZ domain (UniProt Q9BYB0); test: automated holdup, biotin-peptide resin
SHROOM2 PDZ domain = SHROOM2 PDZ domain (UniProt Q13796); test: automated holdup, biotin-peptide resin
HTRA1 PDZ domain = HTRA1 PDZ domain (UniProt Q92743); test: automated holdup, biotin-peptide resin
LNX1 PDZ domain 3 = LNX1 PDZ domain 3 (UniProt Q8TBB1); test: automated holdup, biotin-peptide resin

ARHGEF12 PDZ domain, sequence (Q9NZN5 whole entry, looked up, the tested form may be a part): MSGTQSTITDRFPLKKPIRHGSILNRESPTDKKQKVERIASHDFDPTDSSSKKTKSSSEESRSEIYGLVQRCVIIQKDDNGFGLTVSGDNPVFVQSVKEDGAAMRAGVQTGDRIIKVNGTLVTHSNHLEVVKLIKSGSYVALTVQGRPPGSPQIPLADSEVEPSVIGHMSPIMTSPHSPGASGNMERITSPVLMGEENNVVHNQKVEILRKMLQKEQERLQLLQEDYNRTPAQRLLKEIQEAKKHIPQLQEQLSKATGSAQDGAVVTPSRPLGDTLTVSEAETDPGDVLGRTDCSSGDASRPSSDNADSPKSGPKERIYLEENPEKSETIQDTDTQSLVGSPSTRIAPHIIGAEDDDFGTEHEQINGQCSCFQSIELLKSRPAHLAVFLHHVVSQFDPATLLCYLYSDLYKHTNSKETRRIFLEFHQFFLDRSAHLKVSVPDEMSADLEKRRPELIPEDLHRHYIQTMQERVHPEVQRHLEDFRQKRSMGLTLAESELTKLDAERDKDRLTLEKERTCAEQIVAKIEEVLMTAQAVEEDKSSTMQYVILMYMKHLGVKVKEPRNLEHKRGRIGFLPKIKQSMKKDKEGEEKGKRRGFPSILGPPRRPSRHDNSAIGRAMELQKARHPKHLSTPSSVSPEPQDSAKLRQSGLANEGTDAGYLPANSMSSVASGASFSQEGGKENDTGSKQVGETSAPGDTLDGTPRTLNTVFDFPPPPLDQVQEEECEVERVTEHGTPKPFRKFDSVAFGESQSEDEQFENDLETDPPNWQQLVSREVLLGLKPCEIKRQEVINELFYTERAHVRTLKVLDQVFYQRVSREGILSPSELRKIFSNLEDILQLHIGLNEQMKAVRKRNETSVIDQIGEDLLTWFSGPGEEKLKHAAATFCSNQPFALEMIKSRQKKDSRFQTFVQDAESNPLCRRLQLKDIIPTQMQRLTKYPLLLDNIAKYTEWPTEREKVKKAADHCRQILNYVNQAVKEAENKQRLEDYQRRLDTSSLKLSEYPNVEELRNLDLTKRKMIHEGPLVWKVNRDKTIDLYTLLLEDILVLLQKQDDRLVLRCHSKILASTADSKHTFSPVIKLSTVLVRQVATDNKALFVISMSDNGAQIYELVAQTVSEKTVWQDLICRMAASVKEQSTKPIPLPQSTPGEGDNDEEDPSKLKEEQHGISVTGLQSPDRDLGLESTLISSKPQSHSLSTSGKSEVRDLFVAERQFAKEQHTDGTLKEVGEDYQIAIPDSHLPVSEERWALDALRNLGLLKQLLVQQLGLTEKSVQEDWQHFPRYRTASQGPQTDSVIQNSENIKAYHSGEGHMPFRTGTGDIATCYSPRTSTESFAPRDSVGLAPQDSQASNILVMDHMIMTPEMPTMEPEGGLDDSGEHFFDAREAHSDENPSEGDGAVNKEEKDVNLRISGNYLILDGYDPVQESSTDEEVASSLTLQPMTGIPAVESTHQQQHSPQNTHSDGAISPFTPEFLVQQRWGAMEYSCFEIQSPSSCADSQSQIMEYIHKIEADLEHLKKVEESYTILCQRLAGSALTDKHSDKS
GRID2IP PDZ domain 1, sequence (A4D2P6 whole entry, looked up, the tested form may be a part): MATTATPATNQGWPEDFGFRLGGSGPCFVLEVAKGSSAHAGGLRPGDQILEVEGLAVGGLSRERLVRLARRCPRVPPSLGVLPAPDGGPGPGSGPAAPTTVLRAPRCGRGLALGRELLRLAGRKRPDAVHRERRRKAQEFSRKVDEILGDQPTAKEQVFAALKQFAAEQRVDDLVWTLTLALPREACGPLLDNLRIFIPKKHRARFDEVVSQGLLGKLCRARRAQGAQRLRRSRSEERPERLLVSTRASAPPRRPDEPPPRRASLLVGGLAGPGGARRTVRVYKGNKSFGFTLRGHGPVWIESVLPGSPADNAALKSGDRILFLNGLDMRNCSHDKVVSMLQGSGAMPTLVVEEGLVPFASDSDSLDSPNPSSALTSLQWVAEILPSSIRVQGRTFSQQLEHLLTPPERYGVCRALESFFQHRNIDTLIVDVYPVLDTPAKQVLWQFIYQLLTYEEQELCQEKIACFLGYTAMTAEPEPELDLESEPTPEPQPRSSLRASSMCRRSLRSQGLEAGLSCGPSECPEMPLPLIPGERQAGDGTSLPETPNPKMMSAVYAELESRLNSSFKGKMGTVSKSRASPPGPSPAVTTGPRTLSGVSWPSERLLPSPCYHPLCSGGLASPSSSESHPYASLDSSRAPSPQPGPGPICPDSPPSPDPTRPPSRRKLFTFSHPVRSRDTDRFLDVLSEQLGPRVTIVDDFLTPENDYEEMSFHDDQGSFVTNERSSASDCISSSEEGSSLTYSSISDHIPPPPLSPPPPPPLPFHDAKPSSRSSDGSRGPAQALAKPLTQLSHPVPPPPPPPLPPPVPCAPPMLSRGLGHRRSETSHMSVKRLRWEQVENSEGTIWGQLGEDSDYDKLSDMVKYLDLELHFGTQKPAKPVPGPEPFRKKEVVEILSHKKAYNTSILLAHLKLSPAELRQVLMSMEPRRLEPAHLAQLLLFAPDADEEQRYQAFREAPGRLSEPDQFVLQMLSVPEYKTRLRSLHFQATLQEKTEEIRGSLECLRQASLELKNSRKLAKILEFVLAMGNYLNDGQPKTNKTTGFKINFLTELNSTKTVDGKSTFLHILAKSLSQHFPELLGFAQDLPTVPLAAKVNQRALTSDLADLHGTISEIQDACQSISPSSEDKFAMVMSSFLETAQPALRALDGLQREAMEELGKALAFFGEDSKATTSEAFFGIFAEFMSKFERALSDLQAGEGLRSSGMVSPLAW
ARHGEF11 PDZ domain, sequence (O15085 whole entry, looked up, the tested form may be a part): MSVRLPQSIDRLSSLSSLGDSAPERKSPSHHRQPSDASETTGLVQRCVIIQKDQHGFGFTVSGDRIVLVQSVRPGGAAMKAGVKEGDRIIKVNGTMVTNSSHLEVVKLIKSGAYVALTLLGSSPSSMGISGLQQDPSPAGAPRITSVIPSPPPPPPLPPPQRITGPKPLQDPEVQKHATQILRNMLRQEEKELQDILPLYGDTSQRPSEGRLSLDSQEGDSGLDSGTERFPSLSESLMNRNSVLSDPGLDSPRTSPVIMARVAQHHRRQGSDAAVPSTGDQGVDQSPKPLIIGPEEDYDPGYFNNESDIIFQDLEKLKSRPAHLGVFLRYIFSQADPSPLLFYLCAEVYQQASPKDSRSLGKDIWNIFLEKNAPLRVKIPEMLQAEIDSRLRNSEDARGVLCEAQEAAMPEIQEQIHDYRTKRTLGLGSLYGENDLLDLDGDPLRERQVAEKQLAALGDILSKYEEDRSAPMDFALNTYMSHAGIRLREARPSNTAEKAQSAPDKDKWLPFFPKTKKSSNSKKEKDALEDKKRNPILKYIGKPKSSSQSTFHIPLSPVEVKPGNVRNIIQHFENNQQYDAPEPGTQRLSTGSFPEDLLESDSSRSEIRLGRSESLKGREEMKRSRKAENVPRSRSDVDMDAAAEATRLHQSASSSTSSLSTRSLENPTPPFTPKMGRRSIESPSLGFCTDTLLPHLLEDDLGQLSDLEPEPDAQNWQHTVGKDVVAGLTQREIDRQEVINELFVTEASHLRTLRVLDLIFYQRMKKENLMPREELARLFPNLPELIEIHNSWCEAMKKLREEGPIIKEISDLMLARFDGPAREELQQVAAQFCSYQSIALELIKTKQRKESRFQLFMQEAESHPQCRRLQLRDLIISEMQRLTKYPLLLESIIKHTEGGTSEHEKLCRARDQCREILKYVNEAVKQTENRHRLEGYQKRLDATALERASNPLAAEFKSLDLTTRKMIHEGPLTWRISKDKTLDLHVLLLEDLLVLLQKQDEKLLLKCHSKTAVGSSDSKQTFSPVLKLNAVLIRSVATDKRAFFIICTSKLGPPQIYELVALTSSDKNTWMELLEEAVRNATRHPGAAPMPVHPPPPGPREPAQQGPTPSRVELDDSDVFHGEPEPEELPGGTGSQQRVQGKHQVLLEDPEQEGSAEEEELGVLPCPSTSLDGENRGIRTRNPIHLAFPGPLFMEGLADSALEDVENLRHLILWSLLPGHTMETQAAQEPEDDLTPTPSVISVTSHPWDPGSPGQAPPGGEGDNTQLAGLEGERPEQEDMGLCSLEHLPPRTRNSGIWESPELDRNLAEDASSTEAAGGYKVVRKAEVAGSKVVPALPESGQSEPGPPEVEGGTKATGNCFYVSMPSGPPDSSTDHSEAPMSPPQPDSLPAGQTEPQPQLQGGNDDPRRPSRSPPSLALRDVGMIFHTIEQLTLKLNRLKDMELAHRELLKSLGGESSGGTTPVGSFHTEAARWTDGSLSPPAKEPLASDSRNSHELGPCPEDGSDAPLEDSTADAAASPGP
GORASP1 PDZ domain, sequence (Q9BQQ3 whole entry, looked up, the tested form may be a part): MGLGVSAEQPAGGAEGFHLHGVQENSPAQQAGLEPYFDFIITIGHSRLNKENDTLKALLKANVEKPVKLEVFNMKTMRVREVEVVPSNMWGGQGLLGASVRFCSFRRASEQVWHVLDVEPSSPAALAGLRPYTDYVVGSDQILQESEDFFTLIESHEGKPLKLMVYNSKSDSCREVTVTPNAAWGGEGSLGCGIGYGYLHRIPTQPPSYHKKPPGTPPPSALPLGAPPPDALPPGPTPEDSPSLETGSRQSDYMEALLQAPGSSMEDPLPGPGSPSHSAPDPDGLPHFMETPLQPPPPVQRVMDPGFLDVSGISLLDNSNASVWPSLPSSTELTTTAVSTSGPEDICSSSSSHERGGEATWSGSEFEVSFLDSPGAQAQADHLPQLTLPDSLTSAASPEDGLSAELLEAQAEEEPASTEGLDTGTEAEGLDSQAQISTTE
GRASP PDZ domain, sequence (Q7Z6J2 whole entry, looked up, the tested form may be a part): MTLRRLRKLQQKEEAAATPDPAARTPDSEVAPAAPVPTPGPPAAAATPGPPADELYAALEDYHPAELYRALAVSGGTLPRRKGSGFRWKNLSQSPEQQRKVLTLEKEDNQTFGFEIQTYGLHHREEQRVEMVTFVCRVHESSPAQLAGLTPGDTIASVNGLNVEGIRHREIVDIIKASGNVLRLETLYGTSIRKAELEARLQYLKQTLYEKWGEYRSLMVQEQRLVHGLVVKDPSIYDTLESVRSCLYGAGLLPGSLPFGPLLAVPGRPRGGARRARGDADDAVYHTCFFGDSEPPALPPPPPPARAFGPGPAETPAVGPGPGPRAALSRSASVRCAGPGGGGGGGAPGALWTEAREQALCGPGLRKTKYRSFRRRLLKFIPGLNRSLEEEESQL

In the case of “RSK1 (ribosomal S6 kinase 1) 725-735 (from UniProt Q15418) pS732 peptide”, the KD (PDZD7 PDZ domain 3) is reported as “weaker; reference 6.2 ± 0.9”, the KD (ARHGEF12 PDZ domain) is reported as “lost; reference 2.79 ± 0.11” and the KD (GOPC PDZ domain) is reported as “weaker; reference 8.92 ± 0.44”. For the same substance, the KD (MAST2 PDZ domain) was “weaker; reference 7.02 ± 0.27”, the KD (MAST1 PDZ domain) was “weaker; reference 20 ± 1” and the “other: holdup binding intensity (BI)” value (NHERF3 PDZ domain 1) was “lost; reference 0.41 ± 0.01”. The “other: holdup binding intensity (BI)” value (NHERF2 PDZ domain 2) was “lost; reference 0.20 ± 0.04”, the “other: holdup binding intensity (BI)” value (PDZRN3 PDZ domain 1) was “stronger; reference 0.26 ± 0.01” and the “other: holdup binding intensity (BI)” value (GRID2IP PDZ domain 1) was “gained; reference 0.06 ± 0.02”. For the same substance, the “other: holdup binding intensity (BI)” value (MAGI3 PDZ domain 2) was “same; reference 0.28 ± 0.03”, the “other: holdup binding intensity (BI)” value (MAGI2 PDZ domain 2) was “weaker; reference 0.42 ± 0.01” and the “other: holdup binding intensity (BI)” value (LIMK2 PDZ domain) was “gained; reference 0.01 ± 0.06”. For the same substance, the “other: holdup binding intensity (BI)” value (DFNB31 PDZ domain 3) was “lost; reference 0.23 ± 0.04”, the “other: holdup binding intensity (BI)” value (DLG4 PDZ domain 2) was “gained; reference 0.11 ± 0.03” and the “other: holdup binding intensity (BI)” value (PPP1R9A PDZ domain) was “gained; reference 0.00 ± 0.02”. For the same substance, the “other: holdup binding intensity (BI)” value (GORASP1 PDZ domain) was “gained; reference 0.01 ± 0.02”, the “other: holdup binding intensity (BI)” value (GRASP PDZ domain) was “lost; reference 0.29 ± 0.01” and the “other: holdup binding intensity (BI)” value (PTPN3 PDZ domain) was “gained; reference 0.05 ± 0.02”. The “other: holdup binding intensity (BI)” value (ARHGEF11 PDZ domain) was “lost; reference 0.28 ± 0.06”, the “other: holdup binding intensity (BI)” value (MAGI1 PDZ domain 2) was “weaker; reference 0.43 ± 0.02” and the “other: holdup binding intensity (BI)” value (GORASP2 PDZ domain) was “weaker; reference 0.41 ± 0.02”. The “other: holdup binding intensity (BI)” value (LAP2 PDZ domain) was “gained; reference −0.02 ± 0.05”, the “other: holdup binding intensity (BI)” value (SHANK3 PDZ domain) was “lost; reference 0.27 ± 0.03” and the “other: holdup binding intensity (BI)” value (SHROOM2 PDZ domain) was “gained; reference 0.00 ± 0.01”. The “other: holdup binding intensity (BI)” value (HTRA1 PDZ domain) was “weaker; reference 0.44 ± 0.03” and the “other: holdup binding intensity (BI)” value (LNX1 PDZ domain 3) was “gained; reference 0.04 ± 0.02”.
